From paper PMC1277823, “nfi-1 affects behavior and life-span in C. elegans but is not essential for DNA replication or survival”

Biological target: hNFI-C220-H6 (human, UniProt P08651 1-220)
Assay: EMSA; ~5 ng protein; EMSA on 6.5% non-denaturing polyacrylamide gel (Fig. 2A); buffer, salt, pH and temperature not given (as in cited refs 38, 54)
Settings: protein: recombinant; tags: 6xHis; chain copies: 2

Sequence of hNFI-C220-H6 (P08651 1-220): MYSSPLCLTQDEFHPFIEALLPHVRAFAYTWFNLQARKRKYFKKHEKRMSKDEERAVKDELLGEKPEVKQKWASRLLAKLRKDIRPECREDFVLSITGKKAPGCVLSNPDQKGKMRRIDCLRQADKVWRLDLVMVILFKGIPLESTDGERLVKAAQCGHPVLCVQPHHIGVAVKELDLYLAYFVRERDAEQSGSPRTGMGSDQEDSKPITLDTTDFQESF

B1: C2 (dsDNA)
DNA 1: AGGTCTCGCTTTGGGCCAAGAGCCGC
DNA 2: GCGGCTCTTGGCCCAAAGCGAGACCT
- binding result: no binding

B2: 2.6 (dsDNA)
DNA 1: AGGTCTGGCTTTGGGCCAAGAGCCGC
DNA 2: GCGGCTCTTGGCCCAAAGCCAGACCT
- binding result: binds
